Usually stoichiometry N stands for a count of units in the complex or per binding partner. In general, Kd refers to the concentration at which binding is half-saturated. Low values mean tighter binding, high ones weaker binding.

Three molecules from doi:10.1101/2024.07.29.605598 (bioRxiv, 2024) can be followed below.

The chains are these.
B1: Drosophila melanogaster GTPase Rap1 G12V (amino acids 1-180), GMPPNP-loaded (enzyme, UniProt P08645 1-180, looked up)
chain: MREYKIVVLGSVGVGKSALTVQFVQCIFVEKYDPTIEDSYRKQVEVDGQQCMLEILDTAGTEQFTAMRDLYMKNGQGFVLVYSITAQSTFNDLQDLREQILRVKDTDDVPMVLVGNKCDLEEERVVGKELGKNLATQFNCAFMETSAKAKVNVNDIFYDLVRQINKKSPEKKQKKPKKSL
B2: Drosophila melanogaster Cno RA2 domain (amino acids 222-350) (domain or fragment, UniProt Q24279 222-350, looked up)
chain: TRSISNPEAVMRRRRQQKLEKKLQQFRSRDGGPDTGGTLKIYGESLCQDVPYKTLLLSIRDCAQAVVREMLTKYGLEKADPLHYCLVQVNSDGTEYILDDDECPLSILMNHPTSRGSIMFHVRRRPADS
B3: Drosophila melanogaster Cno RA1 domain (amino acids 1-137) (domain or fragment, UniProt Q24279 1-137, looked up)
chain: MSHDKKMLDREAVRSVIQQWNANRLDLFALSEPDENLLFHGVMRFYFQDAGQKVATKCIRVASDATVTDVIDTLIEKFRPDMRMLSVPNYALYEVHANGEERRLNADEKPLLVQLNWHIDDREGRFLLKNIDQKTTP

Values joined by “and” are separate entries in the source; they are usually repeats but may differ in a detail not shown here. Identical values can stand only once.

In assay [1] the target is B3. Kind of assay: SEC-MALS.
The target in assay [2] is B2. In words: ITC.
For assay [3], the target named is B3. In words: ITC.
The target of assay [4] is B1. In words: ITC. For orientation: Isothermal titration calorimetry measures the heat released or taken up as one component is titrated into another.

Regarding B1, the “stoichiometry N” value in assay [1] was 1; in assay [2], 0.755 and 0.73 and 0.63; in assay [3], 0.717. Also, the dH was -3.07 kcal/mol and -2.18 kcal/mol and -2.72 kcal/mol in assay [2]; -4.38 kcal/mol and -4.79 kcal/mol in assay [3].

For B2, the dissociation constant (Kd) in assay [4] was 8.8 µM and 7.9 µM and 8.7 µM.

On to B3, for which the Kd in assay [4] was 4.5 µM and 5.9 µM.
